Laboratory results reported in patent publication US20260042834A1 (HBM ALPHA THERAPEUTICS, published 2026).
Positions count from the first letter of the chain named. “And” between values parts separate entries of the source, which are not always exact repeats. Equal entries are not always repeated. Each block holds one binder with its values, some of them ahead of it.

Experiments:
CRH (CT-Biotin) = target: T1, CRH (CT-Biotin) (human and mouse (same sequence), biotin on an added C-terminal K (CRH-K-Biotin)); experiment: ELISA, biotinylated CRH on streptavidin plate
T1 construct: also called Peptide 4 (CRH-Biotin)
T1 peptide: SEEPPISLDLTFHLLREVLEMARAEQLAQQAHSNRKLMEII
Description: (§1) Streptavidin (Thermo, Cat: 21125) was diluted in PBS to a concentration of 2 μg/ml. 100 μl of diluted streptavidin was added per well to ELISA microplates, and the plates were incubated overnight at 4° C. […] 100 μL of 3,3′,5,5′-tetramethylbenzidine (TMB) substrate (Biopanda, Cat: TMB-S-003) was added, and the plates were incubated at room temperature for 15 minutes. 100 μL of ELISA stopping solution (Solarbio, Cat #: C1058) was added to terminate the reaction, and the optical density at 450 nm (OD450 nm) was determined by an ELISA plate reader (Molecular Devices, Spectra max 384 plus).

CRH (NT-Biotin) = target: T2, CRH (NT-Biotin) (human and mouse (same sequence), not fully specified; biotin at the N-terminus); experiment: ELISA, biotinylated CRH on streptavidin plate
T2 peptide: T1 peptide
Description: as §1

[1] = target: T3, corticotropin-releasing hormone (CRH) peptide (human and mouse (same sequence), not fully specified); experiment: cell-based or functional assay
T3 peptide: T1 peptide

human UCN3 peptide = target: T4, human UCN3 peptide (human, UniProt Q969E3 120-157, not fully specified; biotin at N- or C-terminus in the ELISA); experiment: ELISA, biotinylated hUCN3 on streptavidin plates
T4 construct: also called hUCN3; hUCN3 (NT Biotin)
T4 peptide (looked up): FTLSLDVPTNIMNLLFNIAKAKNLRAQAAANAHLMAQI
Description: (§2) Streptavidin (Thermo, Cat: 21125) was diluted in PBS with a concentration of 2 μg/mL. 100 μL of diluted streptavidin was added per well to ELISA microplates, and the plates were incubated overnight at 4° C. Plates were blocked with ELISA blocking solution (containing 2% w/v BSA, 0.05% (v/v) Tween-20, pH 7.4 PBS buffer) at 37° C. for 1 hour, and then incubated with either 1 μg/mL hUCN1 (NT Biotin), hUCN1 (CT Biotin), hUCN2 (NT Biotin), hUCN2 (CT Biotin), hUCN3 (NT Biotin), or hUCN3 (CT Biotin) for 1 hour at 37° C. […] 100 μl of TMB Substrate (Biopanda, Cat: TMB-S-003) was added, and the plates were incubated at room temperature for 15 minutes. 100 μL of ELISA stopping solution (Solarbio, Cat #: C1058) was then added to terminate the reaction, and the OD450 nm was determined by an ELISA plate reader (Molecular Devices, Spectra max 384 plus).

human UCN2 peptide = target: T5, human UCN2 peptide (human, UniProt Q96RP3 72-109, limits assumed, not fully specified; biotin at N- or C-terminus in the ELISA); experiment: ELISA, biotinylated hUCN2 on streptavidin plates
T5 construct: also called hUCN2; hUCN2 (NT Biotin)
T5 peptide (looked up): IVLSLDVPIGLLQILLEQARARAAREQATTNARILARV
Description: as §2

biotinylated CRH = target: T6, biotinylated CRH (human and mouse, not fully specified; biotinylated, position not stated); experiment: Octet BLI, biotinylated CRH on SA sensor
T6 construct: also called Biotin-CRH; biotin-labeled CRH
T6 peptide: T1 peptide

human UCN1 peptide = target: T7, human UCN1 peptide (human, UniProt P55089 83-122); experiment: cell-based or functional assay
T7 peptide (looked up): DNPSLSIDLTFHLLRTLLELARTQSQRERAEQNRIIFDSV

[2] = target: T8, corticotropin-releasing hormone (CRH) peptide (human and mouse, not fully specified); experiment: cell-based or functional assay
T8 peptide: T1 peptide

CRH (CT Biotin) = target: T9, CRH (CT Biotin) (human and mouse, C-terminal K-Biotin); experiment: ELISA, biotin peptide on streptavidin plate
T9 construct: also called Peptide 4 (CRH-Biotin)
T9 peptide: T1 peptide
Description: as §1

CRH (NT Biotin) = target: T10, CRH (NT Biotin) (human and mouse, not fully specified; biotin at the N-terminus); experiment: ELISA, biotin peptide on streptavidin plate
T10 peptide: T1 peptide
Description: as §1

- EC50 (CRH (CT-Biotin)): 0.044 nM
- EC50 (CRH (NT-Biotin)): 0.026 nM
- hCRHR1 Luciferase Reporter Assay IC50 [1]: 16.2 nM
- mCrhr1 Luciferase Reporter Assay IC50 [1]: 29.7 nM
B1: PR005658 (antibody, human IgG1, kappa, V domains shown)
VH: EVQLVESGGVLVQPGGSLRLSCAASGFTFSSYWMTWVRQAPGKGLEWVANIKQDGSEKYYVDSVKGRFTISRDNAKNSLFLQMNSLRAEDTAVYYCARTLIFDYWGQGTLVTVSS
VL: DIVMTQSPLSLPVTPGEPASISCRSSQSLLHSTGYQSLEWYLQKPGQSPQLLIYLGSNRASGVPDRFSGSGSGTDFTLKISRVEAEDVGIYYCMQTLQTPITFGQGTRLEIKR
notes: PTM-removal variant of PR004290

- binding result (human UCN3 peptide): no binding (tested: 100 nM)
- binding result (human UCN2 peptide): no binding (tested: 100 nM)
B2: PR004290 (antibody, human IgG1, kappa, V domains shown)
VH: B1 VH
VL: B1 VL with Q36N
notes: Series 1; human IgG1 wildtype Fc; also called hybridoma clone 28b3

- EC50 (CRH (CT-Biotin)): 0.016 nM
- EC50 (CRH (NT-Biotin)): 0.013 nM
- hCRHR1 Luciferase Reporter Assay IC50 [1]: 5.88 nM
- mCrhr1 Luciferase Reporter Assay IC50 [1]: 18.3 nM
B3: PR006150 (antibody, human IgG1, kappa, V domains shown)
VH: B1 VH with G55S
VL: B1 VL with Q36D
notes: as for B1

- EC50 (CRH (CT-Biotin)): 0.052 nM
- EC50 (CRH (NT-Biotin)): 0.023 nM
- hCRHR1 Luciferase Reporter Assay IC50 [1]: 15.8 nM
- mCrhr1 Luciferase Reporter Assay IC50 [1]: 42.4 nM
B4: PR005662 (antibody, human IgG1, kappa, V domains shown)
VH: B1 VH with G55A
VL: B1 VL
notes: as for B1

- binding result (human UCN3 peptide): no binding (tested: 100 nM)
- binding result (human UCN2 peptide): no binding (tested: 100 nM)
B5: PR005660 (antibody, human IgG1, kappa, V domains shown)
VH: B1 VH with D54E
VL: B1 VL
notes: ΔPTM variant of PR004290

- EC50 (CRH (CT-Biotin)): 0.023 nM
- EC50 (CRH (NT-Biotin)): 0.028 nM
- hCRHR1 Luciferase Reporter Assay IC50 [1]: 2.19 nM
- mCrhr1 Luciferase Reporter Assay IC50 [1]: 4.4 nM
B6: PR006152 (antibody, human IgG1, kappa, V domains shown)
VH: B1 VH with G55S
VL: B1 VL with Q36N, S37P
notes: as for B1

- EC50 (CRH (CT-Biotin)): 0.051 nM
- EC50 (CRH (NT-Biotin)): 0.033 nM
- hCRHR1 Luciferase Reporter Assay IC50 [1]: 10.3 nM
- mCrhr1 Luciferase Reporter Assay IC50 [1]: 29 nM
B7: PR005660 (antibody, human IgG1, kappa, V domains shown)
VH: B1 VH with D54E
VL: B1 VL
notes: as for B1

- EC50 (CRH (CT-Biotin)): 0.024 nM
- EC50 (CRH (NT-Biotin)): 0.025 nM
- hCRHR1 Luciferase Reporter Assay IC50 [1]: 4.89 nM
- mCrhr1 Luciferase Reporter Assay IC50 [1]: 18 nM
B8: PR006146 (antibody, human IgG1, kappa, V domains shown)
VH: B1 VH with G55A
VL: B1 VL with Q36D
notes: as for B1

- EC50 (CRH (CT-Biotin)): 0.019 nM
- EC50 (CRH (NT-Biotin)): 0.019 nM
- hCRHR1 Luciferase Reporter Assay IC50 [1]: 12.4 nM
- mCrhr1 Luciferase Reporter Assay IC50 [1]: 39.5 nM
B9: PR006153 (antibody, human IgG1, kappa, V domains shown)
VH: B1 VH with G55S
VL: B1 VL with Q36S
notes: as for B1

- EC50 (CRH (CT-Biotin)): 0.023 nM
- EC50 (CRH (NT-Biotin)): 0.03 nM
- hCRHR1 Luciferase Reporter Assay IC50 [1]: 13.6 nM
- mCrhr1 Luciferase Reporter Assay IC50 [1]: 57.6 nM
B10: PR006151 (antibody, human IgG1, kappa, V domains shown)
VH: B1 VH with G55S
VL: B1 VL with Q36H
notes: as for B1

- EC50 (CRH (CT-Biotin)): 0.032 nM
- EC50 (CRH (NT-Biotin)): 0.033 nM
- hCRHR1 Luciferase Reporter Assay IC50 [1]: 1.2 nM
- mCrhr1 Luciferase Reporter Assay IC50 [1]: 3.6 nM
B11: PR006144 (antibody, human IgG1, kappa, V domains shown)
VH: B1 VH with D54E
VL: B1 VL with Q36N, S37P
notes: as for B1

- EC50 (CRH (CT-Biotin)): 0.046 nM
- EC50 (CRH (NT-Biotin)): 0.048 nM
- hCRHR1 Luciferase Reporter Assay IC50 [1]: 4.4 nM
B12: PR006142 (antibody, human IgG1, kappa, V domains shown)
VH: B1 VH with D54E
VL: B1 VL with Q36D
notes: as for B1

- EC50 (CRH (CT-Biotin)): 0.027 nM
- EC50 (CRH (NT-Biotin)): 0.023 nM
- hCRHR1 Luciferase Reporter Assay IC50 [1]: 12.1 nM
- mCrhr1 Luciferase Reporter Assay IC50 [1]: 39.9 nM
B13: PR006147 (antibody, human IgG1, kappa, V domains shown)
VH: B1 VH with G55A
VL: B1 VL with Q36H
notes: as for B1

- EC50 (CRH (CT-Biotin)): 0.03 nM
- EC50 (CRH (NT-Biotin)): 0.035 nM
- hCRHR1 Luciferase Reporter Assay IC50 [1]: 2.5 nM
- mCrhr1 Luciferase Reporter Assay IC50 [1]: 4.87 nM
B14: PR006148 (antibody, human IgG1, kappa, V domains shown)
VH: B1 VH with G55A
VL: B1 VL with Q36N, S37P
notes: as for B1

- EC50 (CRH (CT-Biotin)): 0.027 nM
- EC50 (CRH (NT-Biotin)): 0.019 nM
- hCRHR1 Luciferase Reporter Assay IC50 [1]: 8.04 nM
- mCrhr1 Luciferase Reporter Assay IC50 [1]: 40.1 nM
B15: PR006149 (antibody, human IgG1, kappa, V domains shown)
VH: B1 VH with G55A
VL: B1 VL with Q36S
notes: as for B1

- Kd (biotinylated CRH): < 0.001 nM
- koff (biotinylated CRH): 2.18e-07 s⁻¹
- kon (biotinylated CRH): 1.01e+06 M⁻¹ s⁻¹
- CHO-CRE-hCRHR1 1 nM hUCH1 IC50 (human UCN1 peptide): 19 nM
- hUCN1 IC50/ CRH IC50 (human UCN1 peptide): 40 fold
- CHO-CRE-hCRHR1 0.5 nM CRH IC50 [2]: 0.503 nM and 0.437 nM
- EC50 (CRH (CT Biotin)): 0.017 nM
- EC50 (CRH (NT Biotin)): 0.023 nM
B16: PR302341 (antibody, human IgG1, kappa, V domains shown)
VH: EVQLQQSGPELVKPGASVKMSCKASGYTFTDYFMKWVKQSHGESLEWIGVINPNNGDIFYNQKFKGKATLTVDKSSSTAFMQLNSLTSEDSAVYSCARGTDRALFAYWGQGTLVAVSA
VL: DVLMTQTPLSLPVSLGDQASISCRSGQSIVHSDGNTYLEWYLQRPGQSPRLLIYKVSNRFSGVPDRFSGSGSGTDFTLKISRVGAEDLGIYYCFQGSHIPWTFGGGTKLEVKR
notes: Series 10; mouse variable domains with human IgG1 wildtype Fc

- binding result (human UCN3 peptide): no binding (tested: 100 nM)
- binding result (human UCN2 peptide): no binding (tested: 100 nM)
B17: PR302064 (antibody, human IgG1, kappa, V domains shown)
VH: EMQLVESGGGLVKPGGSLRLSCAASGFTFSNYWMNWVRQAPGKGLEWVAEIRLKSNNYATHYAESVKGRFTISRDDSKSTVYLQMNSLKTEDTAVYYCTVGTLVYWGQGTLVTVSS
VL: DIVLTQSPDSLAVSLGERATINCRASQSVSTSTYNYMHWFQQKPGQPPKLLIKFASNLESGVPDRFSGSGSGTDFTLTISSLQAEDTAVYYCQHSWEIPYTFGQGTKLEIKR
notes: Humanized variant of PR301777; human IgG1-WT-Fc

- binding result (human UCN3 peptide): no binding (tested: 100 nM)
- binding result (human UCN2 peptide): no binding (tested: 100 nM)
B18: PR302341-34 (antibody, human IgG1, kappa, V domains shown)
VH: QVQLVQSGAEVKKPGASVKVSCKASGYTFTDYFMKWVRQAPGQGLEWMGVINPNQGDIFYNQKFKGRVTMTVDKSISTAYMELSRLRSDDTAVYYCARGTDRALFAYWGQGTLVTVSS
VL: DVVMTQSPLSLPVTLGQPASISCRSGQSIVHSDANTYLEWYQQRPGQSPRLLIYKVSNRFSGVPDRFSGSGSGTDFTLKISRVEAEDLGVYYCFQGSHIPWTFGGGTKVEIKR
notes: Humanized, PTM-removed variant of PR302341

- binding result (human UCN3 peptide): no binding (tested: 100 nM)
- binding result (human UCN2 peptide): no binding (tested: 100 nM)
B19: PR302341-28 (antibody, human IgG1, kappa, V domains shown)
VH: B18 VH
VL: B18 VL with A34G
notes: as for B18

- binding result (human UCN3 peptide): no binding (tested: 100 nM)
- binding result (human UCN2 peptide): no binding (tested: 100 nM)
B20: PR302341-60 (antibody, human IgG1, kappa, V domains shown)
VH: B18 VH with G44R, M70I, V72R, K74T, I76A, R85S, D89E
VL: B18 VL
notes: as for B18

- binding result (human UCN3 peptide): no binding (tested: 100 nM)
- binding result (human UCN2 peptide): no binding (tested: 100 nM)
B21: PR302341-48 (antibody, human IgG1, kappa, V domains shown)
VH: B18 VH with I76T, R85S, D89E
VL: B18 VL with S7T, L11S, S48P, S72A
notes: as for B18
